Laboratory results reported in patent US5604198A, “Method to enhance permeability of the blood/brain blood/nerve barriers to therapeutic agents” (priority 1994, dated 1997).

Experiments:
[1] = rat; for PS values across the blood nerve and blood brain barrier / Relative increase of PS vs ALB, blood nerve barrier / Relative increase of Vp vs ALB, blood nerve barrier / Residual endoneurial plasma volume (Vp) of the blood nerve barrier: in vivo; for Permeability coefficient-surface area product (PS) of the blood nerve barrier: not told, iv
Protocol: (§1) Male Sprague-Dawley rats (24-weeks-old) (460-500 g) were obtained from Bio Lab (St. Paul) and were used to determine the PS and Vp measurements. All animals were kept for a minimum of 3 days under standard housing conditions and feeding schedules prior to the experiments.
Briefly, a bolus of PBS containing ^125 I labelled carrier molecule was injected rapidly into the catheterized brachial vein of pentobarbital anesthetized rats. Blood was sampled during the next 30, 60, or 240 minutes from the brachial artery, depending on the carrier molecule being evaluated. Prior to the sacrifice of the animal at time sequences of 60 or 120 seconds, the second isotope-labelled carrier molecule (^131 I) was administered intravenously to serve as the residual plasma volume indicator (Vp).
After the final blood sample was collected, the sciatic nerves were rapidly removed and desheathed. Similarly, the brain was removed followed by the meninges. The brain was dissected into the cortex, caudal putamen, hippocampus, thalamus, brain stem, and cerebellum. The tissue was then lyophilized, and the dry weight was determined with a microbalance. These weights were then converted to their respective wet weights with wet weight/dry weight ratios previously determined for desheathed rat sciatic nerve and for the different brain regions. Tissue and plasma samples were assayed for ^125 I and ^131 I radioactivity in a 2-channel gamma counter. Radioactivity was corrected for crossover of ^131 I activity into the ^125 I channel and background activity. The Vp and PS measurements were calculated as described previously in Poduslo et al., Proc. Natl. Acad. Sci. U.S.A., 89, 2218 (1992). […] Statistical evaluations were done using Student's two-tailed paired t-test. Significance was accepted at the p<0.05 level.

[2] = rat, in vivo
Protocol: as §1
Briefly, a bolus of PBS containing ^125 I labelled carrier molecule was injected rapidly into the catheterized brachial vein of pentobarbital anesthetized rats. Blood was sampled during the next 30, 60, or 240 minutes from the brachial artery, depending on the carrier molecule being evaluated. […]
After the final blood sample was collected, the sciatic nerves were rapidly removed and desheathed. […] The tissue was then lyophilized, and the dry weight was determined with a microbalance. These weights were then converted to their respective wet weights with wet weight/dry weight ratios previously determined for desheathed rat sciatic nerve and for the different brain regions. Tissue and plasma samples were assayed for ^125 I and ^131 I radioactivity in a 2-channel gamma counter. Radioactivity was corrected for crossover of ^131 I activity into the ^125 I channel and background activity. The Vp and PS measurements were calculated as described previously in Poduslo et al., Proc. Natl. Acad. Sci. U.S.A., 89, 2218 (1992). […]

Row | Substance | PS values across the blood nerve and blood brain barrier [1] | Relative increase of PS vs ALB, blood nerve barrier [1] | Relative increase of Vp vs ALB, blood nerve barrier [1] | Residual endoneurial plasma volume (Vp) of the blood nerve barrier [1] [µL/g] | Permeability coefficient-surface area product (PS) of the blood nerve barrier [1] [ml/g/sec × 10^6] | PS values in the different brain regions [2] | Vp values in the different brain regions [2] [µL/g]
1 | lysozyme | 1-10 ×10^-6 ml/g/sec | 66.4 | 1.3 | 2.57 ± 0.52 | 6.71 ± 1.65 | – | –
2 | calmodulin | – | 211.3 | 0.9 | 1.66 ± 0.32 | 21.34 ± 3.40 | – | –
3 | ubiquitin | – | 228.9 | 0.9 | 1.84 ± 0.51 | – | – | –
4 | cytochrome c | 1-10 ×10^-6 ml/g/sec | 73.6 | 1.0 | 1.96 ± 0.32 | 7.43 ± 3.68 | – | –
5 | substance P [SP] | – | – | – | 14.87 ± 3.53 | – | 27.68-36.53 ×10^-6 ml/g/s | 11.03 to 21.29
6 | hemoglobin | 1-10 ×10^-6 ml/g/sec | 65.3 | 1.0 | 1.91 ± 0.35 | 6.60 ± 1.33 | – | –
7 | ceruloplasmin | 1-10 ×10^-6 ml/g/sec | 82.4 | 1.0 | 1.98 ± 0.38 | – | – | –
